Reference: patent publication US20180023057A1

Target: E-cadherin on human iPS cells (TkDN4-M) (human) (UniProt P12830)
Assay: cell-based or functional assay

Chain of E-cadherin on human iPS cells (TkDN4-M) (human) (P12830 155-882 limits assumed): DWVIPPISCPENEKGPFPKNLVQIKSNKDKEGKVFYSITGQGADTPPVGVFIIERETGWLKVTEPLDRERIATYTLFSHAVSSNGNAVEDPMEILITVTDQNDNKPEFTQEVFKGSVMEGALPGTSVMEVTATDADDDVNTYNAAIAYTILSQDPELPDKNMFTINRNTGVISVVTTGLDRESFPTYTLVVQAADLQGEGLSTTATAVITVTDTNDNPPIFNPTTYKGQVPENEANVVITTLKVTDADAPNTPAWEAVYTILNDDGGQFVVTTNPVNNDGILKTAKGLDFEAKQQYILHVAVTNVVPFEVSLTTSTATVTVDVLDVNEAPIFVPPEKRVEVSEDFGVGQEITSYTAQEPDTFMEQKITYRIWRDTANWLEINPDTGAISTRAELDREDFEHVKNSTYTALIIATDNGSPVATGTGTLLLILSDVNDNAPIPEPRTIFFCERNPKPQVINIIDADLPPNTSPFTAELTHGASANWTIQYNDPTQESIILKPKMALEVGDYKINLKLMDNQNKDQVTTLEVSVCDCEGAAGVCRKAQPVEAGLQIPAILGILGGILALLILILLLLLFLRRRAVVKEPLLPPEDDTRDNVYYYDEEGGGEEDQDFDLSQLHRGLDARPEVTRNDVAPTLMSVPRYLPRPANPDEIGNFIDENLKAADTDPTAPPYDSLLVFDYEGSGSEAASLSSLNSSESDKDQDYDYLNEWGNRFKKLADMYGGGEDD

diameter of hiPS cell aggregates on Day 5 of culture in Essential 8, E-cadherin-Fc 50 or 100 µg/ml for the first 48 hours: 500 µm
sizes of hiPS cell aggregates 48 hours after the E-cadherin-Fc treatment, 5 µg/ml (without E-cadherin-Fc: 1000 to 3000 µm): 300 to 700 µm
sizes of hiPS cell aggregates 48 hours after the E-cadherin-Fc treatment, 10 µg/ml: 200 to 400 µm
sizes of hiPS cell aggregates 48 hours after the E-cadherin-Fc treatment, 20 µg/ml: 100 to 500 µm
sizes of hiPS cell aggregates 48 hours after the E-cadherin-Fc treatment, 50 µg/ml: 100 to 300 µm
sizes of hiPS cell aggregates 48 hours after the E-cadherin-Fc treatment, 100 µg/ml: 150 to 700 µm
B1: E-cadherin-Fc fusion protein (Fc fusion, not shown: a dimerising Fc or GST)
chain: DWVIPPISCPENEKGEFPKNLVQIKSNRDKETKVFYSITGQGADKPPVGVFIIERETGWLKVTQPLDREAIAKYILYSHAVSSNGEAVEDPMEIVITVTDQNDNRPEFTQPVFEGFVAEGAVPGTSVMKVSATDADDDVNTYNAAIAYTIVSQDPELPHKNMFTVNRDTGVISVLTSGLDRESYPTYTLVVQAADLQGEGLSTTAKAVITVKDINDNAPVFNPSTYQGQVPENEVNARIATLKVTDDDAPNTPAWKAVYTVVNDPDQQFVVVTDPTTNDGILKTAKGLDFEAKQQYILHVRVENEEPFEGSLVPSTATVTVDVVDVNEAPIFMPAERRVEVPEDFGVGQEITSYTAREPDTFMDQKITYRIWRDTANWLEINPETGAIFTRAEMDREDAEHVKNSTYVALIIATDDGSPIATGTGTLLLVLLDVNDNAPIPEPRNMQFCQRNPQPHIITILDPDLPPNTSPFTAELTHGASVNWTIEYNDAAQESLILQPRKDLEIGEYKIHLKLADNQNKDQVTTLDVHVCDCEGTVNNCMKAGIVAAGLQV
